Test system: MS2 coat protein
Assay: apparent KD of MS2 coat protein; designed switch direction (-1 OFF switch, 1 ON switch): -1; higher = weaker reporter binding
In short: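 The buffer was Tris-HCl pH 7.5 with KCl, MgCl2, BSA, DTT, tRNA and Tween-20. In it, SNAP-549-labelled MS2 coat protein was titrated in doubling steps from 0.7 or 1.5 nM to 3 µM over chip-bound RNA switches transcribed by stalled E. coli RNA polymerase on Illumina chips. Apparent KD is the per-design median over clusters of curve fits to normalised fluorescence.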

[1] = input ligand: microRNA oligo, concentration not stated
[2] = Eterna round: R95, input ligand: FMN 200 uM
[3] = Eterna round: R95, input ligand: microRNA oligo, concentration not stated
[4] = Eterna round: R95, input ligand: none

| Sequence | apparent KD of MS2 coat protein [1] [nM] | apparent KD of MS2 coat protein [2] [nM] | apparent KD of MS2 coat protein [3] [nM] | apparent KD of MS2 coat protein [4] [nM] | apparent KD of MS2 coat protein (input ligand: FMN 200 uM) [nM] | apparent KD of MS2 coat protein (input ligand: none) [nM] |
| --- | --- | --- | --- | --- | --- | --- |
| UACAUGAGGAUCACCCAUGUUUUGUCGUGUAUGGUAUUUAUCUAGGAUAUCAAUUUGUUAAUUUAUGAGAAGGAGAAUAUUAAU [JMF's solution 69] (Eterna round: R96, puzzle: Exclusion NG 3) | 29.6 | – | – | – | – | – |
| CGAGAGCGAGGAUAUACACAACACCUCACUGUCAAGAAAGGACAUGAGGAUCACCCAUGUAGAAGGUGCAAAGC [Xecerevear] (puzzle: Exclusion 2) | – | 303 | 412 | 326 | – | – |
| GGUUGGCGAGGAUAUACAUGAGGAUCACCCAUGUGAGAGAAUAAAGUGAGGAAGAAAAGUAGAAGGCGCUGACA [Mat - Exclusion 3 - Mod of Salish D8] (puzzle: Exclusion 3) | – | 154 | 42.1 | 40.7 | – | – |
| AUAGAUCGAGUUAGGAUAUUGCAGGCCGAGUACAGCAAGAAGGAACAUGAGGAUCACCCAUGUAAACGUGGCUC [Eternabot (L1) Solution 53] (Eterna round: R97, puzzle: Brourd's mod of Exclusion 4) | – | – | – | – | 25.9 | 17.7 |
| GCACUGGCAGGAUAUACAUGAGGAUCACCCAUGUGAUCCCUUAGGUACAAAAGUACAAGUAGAAGGGCCUGUGC [Omei Ex3 Model Bachelor's Dilema v44] (Eterna round: R97, puzzle: Exclusion 3) | – | – | – | – | 52.2 | 845 |
| AGCGAAAAGACAGGAUAUGAGAAUAGAUAGAGCUCAGAAGGGUCACAUGAGGAUCACCCAUGUAAAGUCUUGAGGCUGCGUGGU [Prohibition 11 - Jieux - Exclusion NG 1] (Eterna round: R96, puzzle: Exclusion NG 1) | 43.4 | – | – | – | 184 | 55.6 |
| AAUAAGCUAGGAUAUACAUGAGGAUCACCCAUGUGAGGGCACGGCCGGCGCGGGCCCGGUAGAAGGAGUCAUAA [Exc;s3-VI] (puzzle: Exclusion 3) | – | – | 26.4 | – | – | – |
| UAUAUGUGAGGAUAUCAGGUGUGCUAGCGUACUGGUACAUCUGAGAAGGCACAUGAGGAUCACCCAUGUAUCUU [JL-ex4-3.25 Brourd mod] (puzzle: Exclusion 4) | – | – | 25.5 | – | – | – |
| ACAUGUAAUGUAGGAUAUUUUACACAUGAGGAUCACCCAUGUGACCGGAGGCUUUACUAUGAGUAAGAGAAGGGUAUGUACAUG [Ex NG2 #62] (Eterna round: R96, puzzle: Exclusion NG 2) | 56.6 | – | – | – | 90.5 | 86.7 |
| ACAAGCUUUUAGAUUUUCAACAUGAGGAUCACCCAUGUUCGUCUUAGGCGAGUGCGAGUGCGGUGUACUCGUAUUAG [JL TOV1 3.85 sellena mod] (Eterna round: R97, puzzle: Sensor, turn-off variant 1) | – | – | – | – | 22.2 | 21.9 |
| AAGAGUGCAGGAUAUACUUGAUAGGGUAAGGUGAGUGAGGGACAUGAGGAUCACCCAUGUAGAAGGGCAGAGAG [JR_Exclu2_Sub058] (puzzle: Exclusion 2) | – | 25.8 | 33.4 | 26.3 | – | – |
| ACAUGUCAUCGAGGAUAUUGGACACAUGAGGAUCACCCAUGUACUCGGAGGCUCUACCAUGAGUUCGAGAAGGCGAUGUACAUU [Ex NG2 #77] (Eterna round: R96, puzzle: Exclusion NG 2) | 256 | – | – | – | 542 | 230 |
| AGUCCGUCAGGAUAUGCAAUUGUGGACAUGAGGAUCACCCAUGUAACGUGGGCAUGGUUUGUAGAAGGGACGUGCA [EX5 #92] (Eterna round: R97, puzzle: Exclusion 5) | – | – | – | – | 129 | 95.3 |
| UUUUAACAUGAGGAUCACCCAUGUGAGGAUAUGAUUUUUUUUUUUUUUUUUUUUUUUUUCAGAAGGCACAUUUU [My solution] (puzzle: Exclusion 1) | – | 18 | 64.3 | 42.4 | – | – |
| UAUAUAUAGUAAGGAUAUGUAAUUAUUUUAUGAACAGAAGGUACUGACAUGAGGAUCACCCAUGUUUUAGUGUGGGCAUGUAGA [JMF's solution 48] (Eterna round: R96, puzzle: Exclusion NG 1) | 61.3 | – | – | – | – | – |
| UGUGUGUCAGGAUAUGUGUGUGUGUGUGAAAGCGCGCGCGCGCAGAAGGGACAUGAGGAUCACCCAUGUGCGCG [-35.3, -34.3 kcal, A 20%, 6bis-6] (Eterna round: R97, puzzle: Exclusion 4) | – | – | – | – | 484 | 220 |
| GGUAGUAUGAGUAGUCCUCAUUGAAGAGAUUGGUAAGAUACAUGAGGAUCACCCAUGUUUGAACAAGCUUUUGCUCU [JR_Sv3TOV2_Sub007] (puzzle: Sensor v3, turn-off variant 2) | – | 87.1 | 25.9 | 82.8 | – | – |

| Sequence | apparent KD of MS2 coat protein [1] [nM] | apparent KD of MS2 coat protein [2] [nM] | apparent KD of MS2 coat protein [3] [nM] | apparent KD of MS2 coat protein [4] [nM] | apparent KD of MS2 coat protein (input ligand: FMN 200 uM) [nM] | apparent KD of MS2 coat protein (input ligand: none) [nM] |
| --- | --- | --- | --- | --- | --- | --- |
| AAAGGACGAUUAGGAUAUUCGGUUCAAGGUAAAGAAGAAGGAAUCGUUCCAUACUUAACAUGAGGAUCACCCAUGUGGGUCUAG [Eternabot solution 38] (Eterna round: R96, puzzle: Exclusion NG 1) | 25.5 | – | – | – | – | – |
| GCAUGUCUUAAGGAUAUGCUAAGGCGUGAGCCGGCAGAAGGUAAGACAUGAGGAUCACCCAUGUUUUCCUAAAA [jl-ex6-4.32 ViennaUCT mod] (Eterna round: R97, puzzle: Exclusion 6) | – | – | – | – | 91.3 | 20.7 |
| CCGGAAAGGAAGGAUAUGCUAGACGAUAGUCUAGCAGAAGGUCCUACAUGAGGAUCACCCAUGUGGUCCUCCGG [Mat - Exclusion 6 - Eli Mod - D33] (Eterna round: R97, puzzle: Exclusion 6) | – | – | – | – | 274 | 1210 |
| CUUUGCACGCUGCGGUCCUACAUGAGGAUCACCCAUGUGGUCUGGUGGCGUGGGUCGCCGGACUUGGCUCGUCUUGU [salish99_S_TOV1_R5_041] (Eterna round: R97, puzzle: Sensor, turn-off variant 1) | – | – | – | – | 18.2 | 18.8 |
| AAAGUGUGAGGAUAUCCUGGGCUGGGCCGGGAGGUUCGGUUGGAGAAGGCACAUGAGGAUCACCCAUGUAACGG [Excls4-IX] (puzzle: Exclusion 4) | – | – | 57.1 | – | – | – |
| CCCGUCGAUGUAGGAUAUGCCCGGGUCUCCCGGGCAGAAGGACAUGAGGAUCACCCAUGUUCAUGAGGAUCACCCGUGAAUGGG [Double but mutated MS2] (Eterna round: R96, puzzle: Exclusion NG 1) | 13 | – | – | – | 13.1 | 16.3 |
| CAGUACUGAGGAUAUACAUGAGGAUCACCCAUGUGAGAGAUACUAGUGAGGUCGAUUAGUAGAAGGCAGUACUG [Mat X3R4 m3] (Eterna round: R97, puzzle: Exclusion 3) | – | – | – | – | 856 | 35.7 |
| CCGUCAUCAGGAUAUCCACAUCUCUACAUGAGGAUCACCCAUGUAAGCUUGGGUAAUAGCGGAGAAGGGAUAGACU [Eternabot (Original) Solution 20] (Eterna round: R97, puzzle: Exclusion 5) | – | – | – | – | 78.2 | 57.5 |
| GGUCGUAUGAGUAGUCCUCAUUGAAGAGAUUGGUAAGAUACAUGAGGAUCACCCAUGUUUGAACAAGCUUUUGCUCU [JR_Sv3TOV2_Sub008] (Eterna round: R96, puzzle: Sensor v3, turn-off variant 2) | 54.3 | – | – | – | 159 | 118 |
| UAUAUAUAGUAAGGAUAUGUAUUUGUUUUAUAAACAGAAGGUACUGACAUGAGGAUCACCCAUGUUUUAGUGUGGGCAUGUAGA [JMF's solution 11] (Eterna round: R96, puzzle: Exclusion NG 1) | 32.8 | – | – | – | – | – |
| UCUCGCUGGCGAGGAUAUCCUGUGCGGUUCCGGCUCGUGUCUGUUACAUGAGGAUCACCCAUGUGGGAGAAGGUGUCUGUGGCC [Design 96] (Eterna round: R96, puzzle: Exclusion NG 2) | 15.4 | – | – | – | 16.7 | 18.8 |
| GAUUCGGGAGGAUAUACAUGAGGAUCACCCAUGUGUAUAUAAUAUGUUAAGUUAUCAUGUAGAAGGUUUGGGUC [-16.5, -16.2 kcal, 30% A] (Eterna round: R97, puzzle: Exclusion 3) | – | – | – | – | 38 | 49 |
| GUGACUCAGCAGGAUAUACGCGCGAGUGCGUAAGUAGAAGGGUUGACAUGAGGAUCACCCAUGUAGAACCACAC [Eternabot (L2) Solution 18] (Eterna round: R97, puzzle: Exclusion 6) | – | – | – | – | 19.9 | 18.4 |
| UGAGCAACAGGAUAUAUAUGGCGACCGUGAGGUCGAAGGUUACAUGAGGAUCACCCAUGUAGAAGGGUUGUUCU [Mat - Exclusion 2 - JL Mod - D16] (Eterna round: R97, puzzle: Exclusion 2) | – | – | – | – | 279 | 102 |
| AAUAACAAGCUGAUCCUAAACAUGAGGAUCACCCAUGUGCUCGUCUUGUAAAGUACUAUCACGAAAGUGAUAGUACA [MOD7 of my MOD of Eli's v1-59 (mutation at 11 A to U)] (Eterna round: R97, puzzle: Sensor, turn-off variant 1) | – | – | – | – | 118 | 142 |
| GAGUGACAUGAGGAUCACCCAUGUGAGGAUAUCGGACGGACCAAAUUAACAAUAAAUGCGAGAAGGCGCAUCGG [Exclusion 1 V16] (puzzle: Exclusion 1) | – | 46.7 | 43.3 | 54.3 | – | – |
